Consider two molecules from patent publication US6090911.

The target of experiment [1] is A1 acidic leucine zipper protein. The experiment in a line: urea denaturation followed by CD at 222 nm; difference in the free energies of unfolding at 50% unfolded.
For experiment [2], the target named is T1, B1 basic leucine zipper protein.
T1 sequence: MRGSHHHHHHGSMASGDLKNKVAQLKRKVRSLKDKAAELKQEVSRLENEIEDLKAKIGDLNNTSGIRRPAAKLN
The experiment in a line: urea denaturation of the equimolar mixture followed by CD at 222 nm; difference in the free energies of unfolding at 50% unfolded.

In experiment [3] the target is A1 acidic leucine zipper protein. The experiment in a line: urea denaturation followed by CD at 222 nm, two-state model; ΔGu from lnKd,u (dissociation of the dimers) extrapolated to zero denaturant.
The target is the same in experiment [4]. Nature of the experiment: analytical ultracentrifugation of protein solutions (24 to 220 µM); self-association of A1 dimers to tetramers; 95% confidence limits printed as (50-112).
For experiment [5], the target named is T1, B1 basic leucine zipper protein. The experiment in a line: urea denaturation of the equimolar mixture followed by CD at 222 nm, two-state model; ΔGu from lnKd,u (dissociation of the dimers) extrapolated to zero denaturant.
For experiment [6] the target is unchanged. The experiment in a line: urea denaturation followed by CD at 222 nm; difference in the free energies of unfolding at 50% unfolded.
For experiment [7] the target is unchanged. Nature of the experiment: urea denaturation followed by CD at 222 nm, two-state model; ΔGu from lnKd,u (dissociation of the dimers) extrapolated to zero denaturant.
The target is the same in experiment [8]. The experiment in a line: analytical ultracentrifugation of protein solutions (24 to 220 µM); self-association of B1 dimers to tetramers; 95% confidence limits printed as (1-6).

B1: A1 acidic leucine zipper protein (designed binder)
chain: MRGSHHHHHHGSMASGDLENEVAQLEREVRSLEDEAAELEQKVSRLKNEIEDLKAEIGDLNNTSGIRRPAAKLN
Turning to B1, the ΔΔGu turned out to be 0 kcal/mol in experiment [1] and 2.75 kcal/mol in experiment [2]. Moreover, the values for the ΔGu in experiment [3] and in experiment [5] were 11.5 kcal/mol and 13.8 kcal/mol, respectively. Moreover, in experiment [4], the Dimer-Tetramer Kd stood at 76 µM.

B2: B1 basic leucine zipper protein (designed binder)
chain: MRGSHHHHHHGSMASGDLKNKVAQLKRKVRSLKDKAAELKQEVSRLENEIEDLKAKIGDLNNTSGIRRPAAKLN
Turning to B2, the ΔΔGu in experiment [6] is 0.13 kcal/mol. The ΔGu in experiment [7] is 12.6 kcal/mol. Also, the Dimer-Tetramer Kd in experiment [8] came out at 123 µM.
